Experimental data published in patent US9175313B2, “Three-dimensional structure of isoprene synthase and its use thereof for generating variants” (Danisco US Inc., priority 2009, dated 2015).
Changes are numbered by the printed parent chain. Names may count otherwise.

B1: L494P: P. alba IspS variant L494P; pDW101, strain DW399, SEQ ID NO: 69 (protein)
chain: MEARRSANYEPNSWDYDYLLSSDTDESIEVYKDKAKKLEAEVRREINNEKAEFLTLLELIDNVQRLGLGYRFESDIRGALDRFVSSGGFDAVTKTSLHGTALSFRLLRQHGFEVSQEAFSGFKDQNGNFLENLKEDIKAILSLYEASFLALEGENILDEAKVFAISHLKELSEEKIGKELAEQVNHALELPLHRRTQRLEAVWSIEAYRKKEDANQVLLELAILDYNMIQSVYQRDLRETSRWWRRVGLATKLHFARDRLIESFYWAVGVAFEPQYSDCRNSVAKMFSFVTIIDDIYDVYGTLDELELFTDAVERWDVNAINDLPDYMKLCFLALYNTINEIAYDNLKDKGENILPYLTKAWADLCNAFLQEAKWLYNKSTPTFDDYFGNAWKSSSGPLQLVFAYFAVVQNIKKEEIENLQKYHDTISRPSHIFRLCNDLASASAEIARGETANSVSCYMRTKGISEELATESVMNLIDETWKKMNKEKLGGSPFAKPFVETAINLARQSHCTYHNGDAHTSPDELTRKRVLSVITEPILPFERENLYFQGLEHHHHHH
B2: T536F: P. alba IspS variant T536F; pDW87, strain DW363, SEQ ID NO: 95 (protein)
chain: B1 chain with P494L, T536F

How the values were obtained:
[1] = Specific activity measurement of purified isoprene synthase variants (4 mM DMAPP, 30 C, GC-MS headspace); format: biochemical
Summary of the method: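 Ni-affinity-purified, buffer-exchanged enzyme incubated with 4 mM DMAPP and 50 mM MgCl2 in 50 mM Tris, 50 mM NaCl, pH 8, for 15 min at 30 C in sealed vials; stopped with EDTA. Headspace isoprene quantified by GC-MS, in triplicate; protein concentration from A280 with calculated extinction coefficient.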

[2] = kcat, KM and Ki determination, rate vs [DMAPP], fit to uncompetitive substrate inhibition; format: biochemical
Experimental: 10 uL of purified enzyme was incubated with DMAPP at concentrations ranging from 1.25 to 20 mM DMAPP in a buffer containing 50 mM Tris, 50 mM MgCl2 and 50 mM NaCl (pH=8) to a final volume of 100 uL for 15 min. at 30 C in gas tight 2 mL vials. Reactions were terminated with the addition of 100 uL of 250 mM EDTA, pH=8. Samples were analyzed by GC-MS to determine the concentration of isoprene in the headspace of the vials. Data were analyzed using Kaleidagraph and fit to following equation for uncompetitive substrate inhibition: rate/E=kcat*S/(KM+S*(1+S/Ki)). All kinetic assays were performed in triplicate.
Protein concentration was determined by measuring the absorbance of each protein solution at 280 nm on a Helwlett Pachard 8453 UV-Vis spectrophotometer and converting the absorbance to protein concentration using the extinction coefficient as determined on the Expasy website (Gasteiger E., Hoogland C., Gattiker A., Duvaud S., Wilkins M. R., Appel R. D., Bairoch A.; Protein Identification and Analysis Tools on the ExPASy Server; (In) John M. Walker (ed): The Proteomics Protocols Handbook, Humana Press (2005). pp. 571-607). The protein concentrations of isoprene synthase variants assayed for KM and kcat determination were verified by comparative gel electrophoresis of a dilution series of each protein (FIG. 61).

[3] = Differential scanning calorimetry, thermal midpoint (Tm); format: physicochemical
Experimental: Excessive heat capacity curves were measured using an ultrasensitive scanning high-throughput microcalorimeter, VP-Cap DSC (MicroCal, Inc., Northampton, Mass.). The standard procedure for Differential Scanning calorimetry (DSC) measurements and the theory of the technique is previously published (Freire, E. (1995) Differential Scanning calorimetry Methods. Mol. Biol. 41, 191-218). Approximately 500 μL of 0.5 mg/ml IspS (from strain MD09-167) or variant IspS-L494P (from strain DW399) and IspS-T536F (from strain DW363) (in the absence or presence of 5 mM sodium pyrophosphate) were scanned over a 30-100° C. temperature range. The same sample was then re-scanned to check the reversibility of the process. For IspS the thermal unfolding process was irreversible. The buffer used was 50 mM HEPES, 5 mM MgCl2, pH 7.4, with and without 5 mM sodium pyrophosphate. Sodium pyrophosphate was included for its ability to function as a substrate analog. A 200° C./hr scan rate was used to minimize any artifacts that may result from aggregation. The thermal midpoint (Tm) of the DSC curves was used as an indicator of the thermal stability. The thermal melting curves and the melting points for the wild type IspS and variants are shown in FIG. 56 (buffer only) and 57 (with 5 mM sodium pyrophosphate).

[4] = Isoprene synthase activity vs temperature (DMAPP assay, 25 to 80 C); format: biochemical; conditions: FIG. 58
Experimental: The activity of wild type IspS and variants IspS-L494P and IspS-T536F was measured across a spectrum of temperatures. Individual DMAPP assays were performed at 5° C. intervals from 25° C. to 80° C. by incubating the vials in a pre-heated water bath.
The following reaction mixture was used for the DMAPP assay: 25 μL purified protein, 5 μL MgCl2 (1 M), 5 μL DMAPP (100 mM), and 65 μL 100 mM Tris pH 8, 100 mM NaCl for a total volume of 100 μL. The reaction is performed at the specified temperature for 15 minutes in a gas tight 1.8 mL GC tube. Reactions are terminated by the addition of 100 μL 500 mM EDTA (pH 8). The amount of isoprene produced was measured by GC/MS.
The analysis was performed using an Agilent 6890 GC/MS system interfaced with a CTC Analytics CombiPAL autosampler operating in headspace mode. An Agilent HP-5MS GC/MS column (30 m×0.25 mm; 0.25 μm film thickness) was used for separation of analytes. The sampler was set up to inject 500 μL of headspace gas. The GC/MS method utilized helium as the carrier gas at a flow of 1 ml/min. The injection port was held at 250° C. with a split ratio of 50:1. The oven temperature was held at 37° C. for the […] duration of the analysis. The Agilent 5793N mass selective detector was run in single ion monitoring (SIM) mode on m/z 67. The detector was switched off from 1.4 to 1.7 minutes to allow the elution of permanent gases.

[5] = buffer alone (50 mM HEPES, 5 mM MgCl2, pH 7.4)
[6] = in the presence of 5 mM sodium pyrophosphate

| Molecule | S.A. ([1]; 50 mM NaCl, 50 mM Tris pH = 8, 30° C.) [nmol/mg/min] | Variant S.A./WT S.A. ([1]; 50 mM NaCl, 50 mM Tris pH = 8, 30° C., ratio to WT) | specific activity compared to WT isoprene synthase, in words ([1]; 30 C, purified enzyme) | specific activity, times/fold greater than WT ([1]; 30 C, purified enzyme, listed as P) | specific activity, times/fold greater than WT ([1]; 30 C, purified enzyme, listed as β) | KM compared to WT isoprene synthase, in words ([2]; 1.25 to 20 mM DMAPP, 30 C) | rate profile vs [DMAPP] ([2]; 1.25 to 20 mM DMAPP, 30 C) | Km ([2]; 1.25 to 20 mM DMAPP, 30 C, average of three trials ± one standard deviation) [mM] | kcat ([2]; 1.25 to 20 mM DMAPP, 30 C, average of three trials ± one standard deviation, in s^-1 (unit assumed)) | kcat compared to WT isoprene synthase, in words ([2]; 1.25 to 20 mM DMAPP, 30 C, listed as β) | Ki ([2]; uncompetitive substrate inhibition by DMAPP, average of three trials ± one standard deviation, read-out: KiDMAPP) [mM] | increase in the Tm vs wild type ([3]; buffer alone) [°C] | thermal melting point (Tm) [3, 5] [°C] | increase in the Tm vs wild type [3, 6] [°C] | thermal melting point (Tm) [3, 6] [°C] | temperature activity ratio curve (specific activity at a given temperature / at 35° C.), in words [4] |
| --- | --- | --- | --- | --- | --- | --- | --- | --- | --- | --- | --- | --- | --- | --- | --- | --- |
| B1 | 950 ± 40 | 2.0 | increased specific activity | 2.0 | 2 | less than the KM of the WT | uncompetitive substrate inhibition by DMAPP | 3.6 ± 0.5 | 2.1 ± 0.1 | greater than the kcat of the WT | 13 ± 1 | 2.1 | 60.4 | 2.3 | 57.0 |  |
| B2 |  |  |  |  |  |  |  |  |  |  |  | 3.8 | 62.1 | 4.7 | 59.4 | increased activity and thermostability |
